Experimental data reported in publication PMC7937890.

Test system: T1, RsmE-His6 (Pseudomonas putida KT2440), ORF:50140dbc
T1 sequence: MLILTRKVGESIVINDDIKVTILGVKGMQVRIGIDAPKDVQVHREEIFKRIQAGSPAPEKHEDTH
Test: EMSA
Conditions: 1x binding buffer (composition only cited), RNA 5 or 10 nM, 30 min at 30 C, with or without 100-fold unlabeled competitor RNA; 6% non-denaturing PAGE in TBE at …

“GGGUUCUAAGAUUGGAUCCACUGUUAAUCUUUACCACAUGGACGUUGCGCAGGAAGCGCAAAGGACAGAUCAAGGACGACGACGAAGGACCACCUGCCAGGAUGGCGGGGCGAUACGGAUGUCACAGGGAAACAGUCUGGAAAACCCCGCUUCGGCGGGGGGGGGUUUUUUUUGCGGCCGCUUUU [rsmY full-length RNA]” was tested, and the binding was “binds”.
